Data on 30 sequences can be found in the supplement of paper PMC9170038.

In this data set the test system is MS2 coat protein. In words: apparent KD of MS2 coat protein; designed switch direction (-1 OFF switch, 1 ON switch): 1; higher = weaker reporter binding. A digest of the protocol:
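Three titration conditions were used: no input, 200 uM small-molecule ligand, and an oligonucleotide input. In each, SNAP-549-labelled MS2 coat protein was raised from 0.7 or 1.5 nM, doubling, to 3 µM over designed RNA switches transcribed on Illumina chips by stalled E. coli RNA polymerase. Curve fits of normalised cluster fluorescence gave values whose per-design median over clusters is the apparent KD.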

The mark [1] stands for this setting: input ligand: microRNA oligo, concentration not stated.
Where [2] appears, read: Eterna round: R95, input ligand: FMN 200 uM.
Where [3] appears, read: Eterna round: R95, input ligand: microRNA oligo, concentration not stated.
Setting [4] is: Eterna round: R95, input ligand: none.

As for “GUGGUCAGACAUGAGGAUCACCCAUGUGGAAUAAAUAACGUACAGGAUAUGGAAUAUAGGAUAUACUAGAAGGGUAGAUUGGUG (Eterna round: R96, puzzle: Same State NG 3)”, the “apparent KD of MS2 coat protein” value reads like this: (input ligand: FMN 200 uM) 110 nM; under setting [1], 75.3 nM; (input ligand: none) 87.7 nM.
Turning to “GUGGUCAGACAUGAGGAUCACCCAUGUGGAAUAAAUAAGGAGAAGGAUAUGCAAUAUAGGAUAUAGUAGAAGGUCUGGUUGGUG (Eterna round: R96, puzzle: Same State NG 3)”, the “apparent KD of MS2 coat protein” value under setting [1] came out at 63.4 nM.
Regarding “GUGGUCAGACAUGAGGAUCACCCAUGUGGAAUAAAUAAGGAGAAGGAUAUUGAAUAUAGGAUAUACAAGAAGGUCUGGUUGGUG (Eterna round: R96, puzzle: Same State NG 3)”, under setting [1], the “apparent KD of MS2 coat protein” value was determined as 71.3 nM.
Regarding “GUGGUCAGACAUGAGGAUCACCCAUGUGGAAUAAAUAAGGAUUAGGAUAUGGAAUAUAGGAUAUACCAGAAGGAAUGGUUGGUG (Eterna round: R96, puzzle: Same State NG 3)”, the “apparent KD of MS2 coat protein” value under setting [1] was determined as 75.8 nM.
Same read-out and setting: the result for “GUGGUCAGACAUGAGGAUCACCCAUGUGGAAUAAAUAAGGGUUAGGAUAUGCAAUAUAGGAUAUAGCAGAAGGGAUGGUUGGUG (Eterna round: R96, puzzle: Same State NG 3)” reads 84.9 nM.
As for “GUGGUCAGACAUGAGGAUCACCCAUGUGGAAUAAAUAAGGUUUAGGAUAUGGAAUAUAGGAUAUACCAGAAGGAAAGGUUGGUG (Eterna round: R96, puzzle: Same State NG 3)”, the “apparent KD of MS2 coat protein” value is, setting by setting: (input ligand: FMN 200 uM) 176 nM; under setting [1], 75.4 nM; (input ligand: none) 133 nM.
Consider “GUGGUGGGUUGAGGAUAUUGGUUGUUGUUGUUCUACAUGAGGAUCACCCAUGUGGGUUGUGGUUUUGAGAAGGUUGGUUGCUGG [salish99_SSNG2_r04_049] (Eterna round: R96, puzzle: Same State NG 2)”, for which the “apparent KD of MS2 coat protein” value runs as follows: (input ligand: FMN 200 uM) 45.2 nM; under setting [1], 31.3 nM; (input ligand: none) 42.8 nM.
As to “GUUAAACAUGAGGAUCACCCAUGUCAUCUAAGUCGAGGAUAUGGGAAUUAAUUAAUUAAACCAGAAGGCGAAAAUG [Mat - Same State 1 - D96] (puzzle: Same State 1)”, the “apparent KD of MS2 coat protein” value is, setting by setting: under setting [2], 39 nM; under setting [3], 174 nM; under setting [4], 126 nM.
Turning to “GUUACAUGAGGAUCACCCAUGUAUGUGUGGGAGUAAGUGUCUUAGGAUAUCUAGUAUUAAAUUUAAGAGAAGGAAGAUUGUUGU [JMF's solution 57] (Eterna round: R96, puzzle: Same State NG 3)”, the “apparent KD of MS2 coat protein” value by setting is: (input ligand: FMN 200 uM) 140 nM; under setting [1], 78.9 nM; (input ligand: none) 110 nM.
Turning to “GUUACAUGAGGAUCACCCAUGUAUGUGUGGGAGUAAGUGUCUUAGGAUAUCUAUGAUUUAAAUUAAGAGAAGGAAGAUUGUUGU [JMF's solution 11] (Eterna round: R96, puzzle: Same State NG 3)”, the “apparent KD of MS2 coat protein” value under setting [1] worked out at 84.2 nM.
For the sequence “GUUACAUGAGGAUCACCCAUGUAUGUGUGGGAGUAAGUGUCUUAGGAUAUCUAUUAUUUAAUUUGAGAGAAGGAAGAUUGUUGU [JMF's solution 28] (Eterna round: R96, puzzle: Same State NG 3)”, the “apparent KD of MS2 coat protein” value runs as follows: (input ligand: FMN 200 uM) 107 nM; under setting [1], 97.7 nM; (input ligand: none) 107 nM.
As to “GUUAUACAUGAGGAUCACCCAUGUCAAUGUAGUCGAGGAUAUGGGUUGCUAUGAGGCGUACUAGAAGGCGAGGAGU [JL-ss1-3.17 ViennaUCT mod] (puzzle: Same State 1)”, the “apparent KD of MS2 coat protein” value runs as follows: under setting [2], 297 nM; under setting [3], 98.8 nM; under setting [4], 265 nM.
For the sequence “GUUAUUUAUGCAGGAUAUGAUUAACAUGAGGAUCACCCAUGUGGUGUUGUGAGUAAGGAGAGUGAUCAGAAGGGCAUUUUUUUU [JMF's solution 77] (Eterna round: R96, puzzle: Same State NG 2)”, the “apparent KD of MS2 coat protein” value runs as follows: (input ligand: FMN 200 uM) 626 nM; under setting [1], 298 nM; (input ligand: none) 565 nM.
Regarding “GUUCGGAAUCGAGCUGACAUGAGGAUCACCCAUGUUAGUGGGAAGGAUAUGGUACAGAAACUGUACCAGAAGGUCUUACUGUCU (Eterna round: R96, puzzle: Same State NG 3)”, the “apparent KD of MS2 coat protein” value reads like this: (input ligand: FMN 200 uM) 47 nM; under setting [1], 66.7 nM; (input ligand: none) 67.4 nM.
With “GUUGAGAAAUGAGGAUAUGCAUGGAAGACACAUGAGGAUCACCCAUGUGGGAGGGAAACCAGGAGGUAGAAGGCAUUGGGAAAC [AK SSNG2-V2-24] (Eterna round: R96, puzzle: Same State NG 2)”, the “apparent KD of MS2 coat protein” value by setting is: (input ligand: FMN 200 uM) 35.7 nM; under setting [1], 35.5 nM; (input ligand: none) 55.1 nM.
Take “GUUUUUAGUGCAGGAUAUGAUCAACAUGAGGAUCACCCAUGUGGCGUUGUGAGUAGGGAGAGAGAUCAGAAGGGCGUCUCCGCG [SS-NG2-LRO13] (Eterna round: R96, puzzle: Same State NG 2)”: the “apparent KD of MS2 coat protein” value was 51.5 nM (input ligand: FMN 200 uM), 37 nM under setting [1] and 57.3 nM (input ligand: none).
Regarding “UAAAAACAUGAGGAUCACCCAUGUCAAAAGACAUGAGGAUAUGUACAGACUUCGGUCUGUACAGAAGGCAUGAAAA [salish99_ss1_r3_094] (puzzle: Same State 1)”, the “apparent KD of MS2 coat protein” value under setting [2] was found to be 33.3 nM, the “apparent KD of MS2 coat protein” value under setting [3] came out at 503 nM and the “apparent KD of MS2 coat protein” value under setting [4] is 362 nM.
On to “UAAACUUCUUUUAGUGUGUUGCGAGUGAAACAUGAGGAUCACCCAUGUAAAGGAUUGUGGUAUUUUGUUCGUCUUAA [JR_SHM208A_Sub075] (puzzle: Sensor for hsa-mir-208a)”, for which the “apparent KD of MS2 coat protein” value was 75.2 nM under setting [2], 41.4 nM under setting [3] and 98.8 nM under setting [4].
The corresponding values for “UAAGAACAUGAGGAUCACCCAUGUGGAAAGAACACAGGAUAUCAUAGAAGGACGCGACUAUGAGAAGGGUGACACG [Lequat] (puzzle: Same State 1)” are 390 nM, 104 nM and 218 nM.
Take “UAAUAAAAGGAUAUACAUGAGGAUCACCCAUGUCCGUCUGCCAAGGAUAUCUAGGAUCAAGCAGCAGAGAAGGUGGCACGCCAC [Eternabot solution 35] (Eterna round: R96, puzzle: Same State NG 3)”: the “apparent KD of MS2 coat protein” value reads like this: (input ligand: FMN 200 uM) 22.3 nM; under setting [1], 17.2 nM; (input ligand: none) 18.3 nM.
Regarding “UAGAUUCACGUAGGAUAUCGACCUACAUGAGGAUCACCCAUGUUUUUGAAUAGAUUUUUUUGUUACGAGAAGGACGUUAUGUAU [JR_SSNG2_Sub064] (Eterna round: R96, puzzle: Same State NG 2)”, the “apparent KD of MS2 coat protein” value amounted to 133 nM (input ligand: FMN 200 uM), 177 nM under setting [1] and 268 nM (input ligand: none).
As for “UAGCAGUGCGGGUAGGAUAUGUAGGGUGGUACAUGAGGAUCACCCAUGUAUCCACCCUUCGACCGGCAGAAGGGCCUGUCACUGC [Edor] (Eterna round: R96, puzzle: Same State 2)”, the “apparent KD of MS2 coat protein” value under setting [1] came out at 13.2 nM.
As to “UAGUGAUUGCAAGGAUAUGCUUAUGUUUAAUUUUUUUUAAUAUCUAACAUGAGGAUCACCCAUGUGCAGAAGGUGCUUGAUUUG [JR_SSNG2_Sub075] (Eterna round: R96, puzzle: Same State NG 2)”, under setting [1], the “apparent KD of MS2 coat protein” value is 54.2 nM.
For the sequence “UAUAAACAUGAGGAUCACCCAUGUAAUAAUAUGGGAGGAUAUCAGAAUGUAUUUAUGUAAUGAGAAGGCCUAAUAU [Mat - Same State 1 - Mod of Eli - D69] (puzzle: Same State 1)”, the “apparent KD of MS2 coat protein” value under setting [2] was determined as 50.9 nM, the “apparent KD of MS2 coat protein” value under setting [3] turned out to be 122 nM and the “apparent KD of MS2 coat protein” value under setting [4] was determined as 372 nM.
Take “UAUCCAUAGAUAGGAUAUCAGUAUACAUGAGGAUCACCCAUGUUAUAUUUGGUUUUAAUUUAGUCUGAGAAGGAUCUUGAUGAA [SameState NG2 #2] (Eterna round: R96, puzzle: Same State NG 2)”: the “apparent KD of MS2 coat protein” value turned out to be 14.7 nM (input ligand: FMN 200 uM), 11.9 nM under setting [1] and 15.3 nM (input ligand: none).
Take “UAUCUCAUGUAAGGAUAUGCAGCCGUUUCGGCUGCAGAAGGUACUAUAAUACAUGAGGAUCACCCAUGUCUCUCGCAUUGCGAG [JL SSNG1 1.49] (Eterna round: R96, puzzle: Same State NG 1)”: the “apparent KD of MS2 coat protein” value (input ligand: FMN 200 uM) worked out at 186 nM, the “apparent KD of MS2 coat protein” value under setting [1] was determined as 150 nM and the “apparent KD of MS2 coat protein” value (input ligand: none) amounted to 293 nM.
Take “UAUUAGAUCCGAGGAUAUCCUUAUUAGAAACAUGAGGAUCACCCAUGUAAAGGGAAUUAUUUGUAGGAGAAGGCGGAUUUAGUU [JR_SSNG2_Sub056] (Eterna round: R96, puzzle: Same State NG 2)”: the “apparent KD of MS2 coat protein” value under setting [1] is 41.7 nM.
Regarding “UAUUAGAUCCGAGGAUAUCCUUUUUUCUUACAUGAGGAUCACCCAUGUAAAGGGAUUGAGUUGUAGGAGAAGGCGGAUUUAGUU [JR_SSNG2_Sub058] (Eterna round: R96, puzzle: Same State NG 2)”, the “apparent KD of MS2 coat protein” value under setting [1] worked out at 24.1 nM.
For the sequence “UCGUCCUCGUGCUAGGAUAUCCAUCGUAAAACAUGAGGAUCACCCAUGUAGAAAUGCGCCUACGAGGAGAAGGAGCGAUGUGGAU [Velemageer] (Eterna round: R96, puzzle: Same State 2)”, under setting [1], the “apparent KD of MS2 coat protein” value was 14 nM.
As to “UCUAGACAUGAGGAUCACCCAUGUCGAUAUGGCGCAGGAUAUCGGUACUCAUAGAGUACGCGAGAAGGGUGACUUC [Same State 1 - Mod of Vinnie Gere v.2] (puzzle: Same State 1)”, the “apparent KD of MS2 coat protein” value under setting [3] stood at 173 nM.
